Four molecules from article PMC12318544, “Roughhousing with Ions: Surface-Induced Dissociation and Electron Capture Dissociation as Diagnostics of Q-Cyclic IMS-TOF Instrument Tuning Gentleness” (Journal of the American Society for Mass Spectrometry, 2024) can be followed below.

Holding throughout (assay): native MS; nanoESI on a Waters SELECT Series Cyclic IMS (Q-IM-TOF), gentle tuning at low cone voltage; quadrupole-selected charge-reduced precursor, surface-induced dissociation and ion mobility; 160/40 ammonium acetate/triethylammonium acetate; CRP 1 uM, SA 2-3 uM, PhosB 4 uM; TRAP ~1.5 uM complex in 600 mM ammonium acetate with TEAA added for 15+
One series concerns the target streptavidin (UniProt P22629).
Series [1] deals with the molecule itself.
Series [2] concerns the target T1, human recombinant C-reactive protein (human), P02741.
T1 chain: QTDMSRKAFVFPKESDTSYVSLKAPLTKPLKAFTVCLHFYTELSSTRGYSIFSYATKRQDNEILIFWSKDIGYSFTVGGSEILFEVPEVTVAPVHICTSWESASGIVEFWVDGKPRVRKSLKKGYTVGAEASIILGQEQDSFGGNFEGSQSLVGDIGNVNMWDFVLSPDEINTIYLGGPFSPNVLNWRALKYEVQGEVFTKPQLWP
The following applies: remark: other sources report otherwise.

In the series with streptavidin, “streptavidin (from UniProt P22629 25-183) (natural protein)” registered a stoichiometry N of 4.

B1: phosphorylase B (enzyme, UniProt P00489 1-843, looked up)
chain: MSRPLSDQEKRKQISVRGLAGVENVTELKKNFNRHLHFTLVKDRNVATPRDYYFALAHTVRDHLVGRWIRTQQHYYEKDPKRIYYLSLEFYMGRTLQNTMVNLALENACDEATYQLGLDMEELEEIEEDAGLGNGGLGRLAACFLDSMATLGLAAYGYGIRYEFGIFNQKICGGWQMEEADDWLRYGNPWEKARPEFTLPVHFYGRVEHTSQGAKWVDTQVVLAMPYDTPVPGYRNNVVNTMRLWSAKAPNDFNLKDFNVGGYIQAVLDRNLAENISRVLYPNDNFFEGKELRLKQEYFVVAATLQDIIRRFKSSKFGCRDPVRTNFDAFPDKVAIQLNDTHPSLAIPELMRVLVDLERLDWDKAWEVTVKTCAYTNHTVLPEALERWPVHLLETLLPRHLQIIYEINQRFLNRVAAAFPGDVDRLRRMSLVEEGAVKRINMAHLCIAGSHAVNGVARIHSEILKKTIFKDFYELEPHKFQNKTNGITPRRWLVLCNPGLAEIIAERIGEEYISDLDQLRKLLSYVDDEAFIRDVAKVKQENKLKFAAYLEREYKVHINPNSLFDVQVKRIHEYKRQLLNCLHVITLYNRIKKEPNKFVVPRTVMIGGKAAPGYHMAKMIIKLITAIGDVVNHDPVVGDRLRVIFLENYRVSLAEKVIPAADLSEQISTAGTEASGTGNMKFMLNGALTIGTMDGANVEMAEEAGEENFFIFGMRVEDVDRLDQRGYNAQEYYDRIPELRQIIEQLSSGFFSPKQPDLFKDIVNMLMHHDRFKVFADYEEYVKCQERVSALYKNPREWTRMVIRNIATSGKFSSDRTIAQYAREIWGVEPSRQRLPAPDEKIP
notes: phosphorylase B, dimer, 197 kDa; This catalogue product is recalled to be from rabbit muscle (surmise); also called PhosB; source: bought: Millipore Sigma (P/N P6635)
As to B1, the “stoichiometry N” value in series [1] stood at 2.

B2: human recombinant C-reactive protein, P02741 19-224 (natural protein)
chain: QTDMSRKAFVFPKESDTSYVSLKAPLTKPLKAFTVCLHFYTELSSTRGYSIFSYATKRQDNEILIFWSKDIGYSFTVGGSEILFEVPEVTVAPVHICTSWESASGIVEFWVDGKPRVRKSLKKGYTVGAEASIILGQEQDSFGGNFEGSQSLVGDIGNVNMWDFVLSPDEINTIYLGGPFSPNVLNWRALKYEVQGEVFTKPQLWP
Regarding B2, in series [2], the stoichiometry N was found to be 5.

B3: Tryptophan RNA-binding attenuation protein (TRAP) from Bacillus stearothermophilus (natural protein, UniProt Q9X6J6 1-74, looked up)
chain: MYTNSDFVVIKALEDGVNVIGLTRGADTRFHHSEKLDKGEVLIAQFTEHTSAIKVRGKAYIQTRHGVIESEGKK
notes: also called TRAP bst; source: Mark Foster's lab; copies: 11
For the molecule B3, the “stoichiometry N” value in series [1] was 11.
